Data published in patent publication US20030198640A1 (Human Genome Sciences, published 2003).

Assays:
Test in all cases: flow cytometry on transiently transfected cells
[1] = target: T1, DcR2 on transiently transfected cells (UniProt Q9UBN6 56-386, limits assumed)
T1 construct: whole, on cells
T1 sequence (looked up): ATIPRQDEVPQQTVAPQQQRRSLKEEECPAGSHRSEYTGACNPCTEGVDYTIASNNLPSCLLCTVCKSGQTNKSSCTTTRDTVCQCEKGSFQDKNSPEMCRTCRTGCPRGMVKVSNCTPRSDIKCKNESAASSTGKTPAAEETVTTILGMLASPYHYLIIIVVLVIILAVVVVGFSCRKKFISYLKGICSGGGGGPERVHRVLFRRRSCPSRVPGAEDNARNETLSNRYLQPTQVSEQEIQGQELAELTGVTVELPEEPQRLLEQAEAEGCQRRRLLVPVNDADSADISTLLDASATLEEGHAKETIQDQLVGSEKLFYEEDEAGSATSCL
Method: (§1) One million cells, in 0.1 ml of FACS buffer (PBS, 0.1% BSA, 0.1% NaN₃), were incubated with 0.1-1 microgram of protein or antibody at RT for 15 min. The cells were washed with 3 ml of FACS buffer, reacted with biotinylated primary antibody, and stained with PE-conjugated secondary antibody at RT for 15 min. Cells were then washed again, resuspended in 0.5 microgram/ml of propidium iodide, and live cells were gated and analyzed on a FACScan using the CellQuest software (BD Biosciences).

[2] = target: T2, 4-1BB on transiently transfected cells (UniProt Q07011 24-255)
T2 construct: whole, on cells
Method: as §1

[3] = target: T3, DR5 on transiently transfected cells (UniProt O14763 56-440, limits assumed)
T3 construct: whole, on cells
Method: as §1

[4] = target: T4, DR4 on transiently transfected cells (UniProt O00220 24-468, limits assumed)
T4 construct: whole, on cells
T4 sequence (looked up): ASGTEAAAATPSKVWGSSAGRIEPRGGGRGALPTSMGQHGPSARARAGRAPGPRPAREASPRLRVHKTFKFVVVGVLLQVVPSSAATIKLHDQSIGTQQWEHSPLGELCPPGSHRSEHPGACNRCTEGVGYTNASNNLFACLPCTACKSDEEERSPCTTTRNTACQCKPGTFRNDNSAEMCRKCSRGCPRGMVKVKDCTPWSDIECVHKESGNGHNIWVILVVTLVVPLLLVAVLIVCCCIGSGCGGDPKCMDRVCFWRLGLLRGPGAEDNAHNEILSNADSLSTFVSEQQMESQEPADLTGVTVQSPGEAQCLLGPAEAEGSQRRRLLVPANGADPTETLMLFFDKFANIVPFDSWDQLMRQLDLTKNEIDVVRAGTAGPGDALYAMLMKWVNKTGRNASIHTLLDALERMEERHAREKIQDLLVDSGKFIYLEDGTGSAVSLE
Method: as §1

[5] = target: T5, TNFR2 on transiently transfected cells (UniProt P20333 23-461, limits assumed)
T5 construct: whole, on cells
T5 sequence (looked up): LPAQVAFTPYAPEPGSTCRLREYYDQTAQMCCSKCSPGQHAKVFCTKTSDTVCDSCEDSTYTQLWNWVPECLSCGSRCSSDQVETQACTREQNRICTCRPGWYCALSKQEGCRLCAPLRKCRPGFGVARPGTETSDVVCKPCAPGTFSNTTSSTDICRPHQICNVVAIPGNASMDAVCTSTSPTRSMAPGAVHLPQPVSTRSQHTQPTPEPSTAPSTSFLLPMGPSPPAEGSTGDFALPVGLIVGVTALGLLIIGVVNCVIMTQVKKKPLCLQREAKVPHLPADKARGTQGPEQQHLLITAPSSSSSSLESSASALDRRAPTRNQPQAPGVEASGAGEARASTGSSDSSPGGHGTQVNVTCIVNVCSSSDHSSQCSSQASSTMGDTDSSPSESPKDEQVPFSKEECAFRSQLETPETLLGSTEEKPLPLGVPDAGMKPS
Method: as §1

[6] = target: T6, HveA on transiently transfected cells (UniProt Q92956 39-283, limits assumed)
T6 construct: whole, on cells
T6 sequence (looked up): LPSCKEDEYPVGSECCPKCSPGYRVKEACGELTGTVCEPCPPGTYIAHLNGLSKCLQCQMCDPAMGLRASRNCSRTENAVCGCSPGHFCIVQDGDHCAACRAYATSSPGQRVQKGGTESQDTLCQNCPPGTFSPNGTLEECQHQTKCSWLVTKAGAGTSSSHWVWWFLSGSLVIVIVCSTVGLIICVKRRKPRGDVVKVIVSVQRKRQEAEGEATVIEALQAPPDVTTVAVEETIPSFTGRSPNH
Method: as §1

[7] = target: T7, DR6 on transiently transfected cells (UniProt O75509 42-655, limits assumed)
T7 construct: whole, on cells
T7 sequence (looked up): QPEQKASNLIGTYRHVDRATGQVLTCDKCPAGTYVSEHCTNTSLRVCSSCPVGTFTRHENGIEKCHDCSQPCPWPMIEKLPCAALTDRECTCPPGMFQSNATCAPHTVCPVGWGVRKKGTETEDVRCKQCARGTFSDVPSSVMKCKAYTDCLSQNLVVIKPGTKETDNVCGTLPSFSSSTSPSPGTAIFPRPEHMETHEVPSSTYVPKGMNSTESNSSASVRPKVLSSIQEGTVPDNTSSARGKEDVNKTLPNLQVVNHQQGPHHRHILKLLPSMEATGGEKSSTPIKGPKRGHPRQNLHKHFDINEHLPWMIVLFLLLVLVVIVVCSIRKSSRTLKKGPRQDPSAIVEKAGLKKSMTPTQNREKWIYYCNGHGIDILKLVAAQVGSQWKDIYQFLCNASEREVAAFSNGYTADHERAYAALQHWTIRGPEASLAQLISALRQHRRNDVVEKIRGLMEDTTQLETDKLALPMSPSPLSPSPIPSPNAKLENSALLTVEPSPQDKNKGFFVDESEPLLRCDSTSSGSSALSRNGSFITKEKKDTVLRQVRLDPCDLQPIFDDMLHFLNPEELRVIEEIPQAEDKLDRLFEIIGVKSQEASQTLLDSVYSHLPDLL
Method: as §1

[8] = target: T8, CD27 on transiently transfected cells (UniProt P26842 20-260, limits assumed)
T8 construct: whole, on cells
T8 sequence (looked up): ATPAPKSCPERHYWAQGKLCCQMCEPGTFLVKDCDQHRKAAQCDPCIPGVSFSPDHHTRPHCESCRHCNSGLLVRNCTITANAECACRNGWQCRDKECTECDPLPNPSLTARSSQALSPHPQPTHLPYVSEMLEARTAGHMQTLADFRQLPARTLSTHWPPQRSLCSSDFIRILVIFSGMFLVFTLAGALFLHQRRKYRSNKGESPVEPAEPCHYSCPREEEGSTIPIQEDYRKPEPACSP
Method: as §1

Measured: binding result

T2 sequence (Q07011 24-255): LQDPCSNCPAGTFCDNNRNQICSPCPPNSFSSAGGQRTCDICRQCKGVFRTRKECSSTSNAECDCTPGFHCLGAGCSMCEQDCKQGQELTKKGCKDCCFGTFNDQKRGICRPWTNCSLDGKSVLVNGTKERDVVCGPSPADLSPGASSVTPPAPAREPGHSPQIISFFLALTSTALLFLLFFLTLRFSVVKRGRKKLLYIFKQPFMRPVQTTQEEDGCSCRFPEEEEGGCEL

B1: FLAG-tagged soluble form of TNF-gamma-beta (aa 72-251) (ligand)
chain: LKGQEFAPSHQQVYAPLRADGDKPRAHLTVVRQTPTQHFKNQFPALHWEHELGLAFTKNRMNYTNKFLLIPESGDYFIYSQVTFRGMTSECSEIRQAGRPNKPDSITVVITKVTDSYPEPTQLLMGTKSVCEVGSNWFQPIYLGAMFSLQEGDKLMVNVSDISLVDYTKEDKTFFGAFLL
notes: also called FLAG-TL1β; FLAG-TNF-gamma-beta; not shown: FLAG tag of the pFLAG-CMV-1 vector at the amino terminus
no binding: all assays above
